± gives the standard deviation.
Experiment: protein stability index of a GFP-peptide fusion (GPS, HEK-293T) (PSI 1-6); higher = more stable
Settings: c terminus: a fixed tail appended
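Further: 24-mer peptide tiles fused after GFP, lentivirally expressed, FACS-sorted into six equal bins by GFP/DsRed ratio, decoded by Illumina sequencing, PSI is the read-weighted mean bin number.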

Row | Sequence | protein stability index (treatment: DMSO) | protein stability index (treatment: MLN4924 1 uM, 8 h)
1 | WRLLNPGEYVVTAKAEGFTASTKN [CPXM2] | 3.09 ± 0.43 | 3.03 ± 0.29
2 | PLMPGMPPVMPGMPPGLHHQRKYT [ZNF207] | 3.91 ± 0.39 | 4.11 ± 0.18
3 | RLVRVFRIFKLSRHSKGLQILGQT [KCNA1] | 2.65 ± 0.57 | 2.29 ± 0.36
4 | ELACPAERSGHVAVSDGRHMFVWG [KLHDC2] | 2.84 ± 0.15 | 2.92 ± 0.2
5 | YPALREKSKKYSDVEVPASVTGYS [ADD1] | 4.16 ± 0.2 | 4.28 ± 0.25
6 | YDPTYKDKEGPSPKVEYVWRNIIL [SCD] | 2.11 ± 0.47 | 2.37 ± 0.23
7 | AACLLQLDGLIQQCGETMKETVNV [GMCL1] | 3.14 ± 0.24 | 3.07 ± 0.25
8 | VAKRKSSMPQKFLGDKGLSDTPYD [IKZF1] | 4.22 ± 0.1 | 4.38 ± 0.16
9 | SSSFSNLDLSEEDSDDPSVTLELS [VDR] | 5.35 ± 0.23 | 5.16 ± 0.28
10 | LCSFLLLLLLQVSSSYAGQFRVIG [MOG] | 3.39 ± 0.38 | 3.29 ± 0.29
11 | SENMWNTGSTYNLSSGMAVAGMPT [CARM1] | 3.48 ± 0.15 | 3.63 ± 0.1
12 | RHSNVVILTTSNITEKIDVAFVDR [TRIP13] | 2.34 ± 0.29 | 2.14 ± 0.16
13 | QKHYVYGPLPQSFDKEWVAKQTKR [COX4I1] | 3.55 ± 0.41 | 3.7 ± 0.28
14 | LLKTPWRAASAMQFFTKGYQETIS [GCH1] | 2.19 ± 0.28 | 2.44 ± 0.18
15 | VKRKIRDESLCPQHHEALSLFCYE [TRIM39] | 2.38 ± 0.11 | 2.73 ± 0.3
16 | AQQLEEEGPMEEEEAQPMAAPEGK [EID1] | 5.68 ± 0.29 | 5.53 ± 0.35

Row | Sequence | protein stability index (treatment: DMSO) | protein stability index (treatment: MLN4924 1 uM, 8 h)
17 | NLHRVAAHELGHSLGLSHSTDIGA [MMP1] | 3.48 ± 0.33 | 3.57 ± 0.33
18 | CEALINRVSAMRDYRGPDCRYLNF [MIA2] | 2.3 ± 0.33 | 2.53 ± 0.14
19 | LTELVQRRITYLQNPKDCSKAKKL [FUT8] | 3.99 ± 0.35 | 4.08 ± 0.24
20 | KQESTRPEKKSDQPMCEEHEEERI [TRIM55] | 5.73 ± 0.12 | 5.48 ± 0.26
21 | CGFTVAQIITSLVFHLPFYSSNQL [OR10K2] | 3.15 ± 0.51 | 2.95 ± 0.41
22 | SVVPEMEESGAQLLLEMLTFNPHK [CDK4] | 3.14 ± 0.26 | 3.15 ± 0.38
23 | HFQEAIDFIDCVREKGGKVLVHCE [DUSP5] | 2.76 ± 0.39 | 2.76 ± 0.53
24 | FDDFVTNLIEKSASLDNGGCALTT [SOAT1] | 3.66 ± 0.27 | 3.62 ± 0.16
25 | TVDKQNISLWPREPPPKSGPSLVP [CD207] | 3.84 ± 0.21 | 3.73 ± 0.082
26 | GKMVEEVDGRATQKLIVNLKPEKS [PTPRD] | 4.69 ± 0.13 | 4.66 ± 0.29
27 | SHAGKVVLRSWYEKNKHIFPASRW [FAM50A] | 2.4 ± 0.3 | 2.58 ± 0.21
28 | PKTPMDGADCGIQWWNAVFIMLLI [LYSMD4] | 2.5 ± 0.62 | 2.39 ± 0.41
29 | QASKLRASKEEKEDWLSHALSRKK [FBF1] | 4.5 ± 0.24 | 4.54 ± 0.26
30 | TNNGAGFGLSILWVLLFTPCSFVC [SCAMP3] | 3.04 ± 0.37 | 3.27 ± 0.36
31 | VPGEFKQDVTVVGSAGRLLAVGTD [GFOD1] | 4.1 ± 0.29 | 3.69 ± 0.17
32 | LGSIFQQLAHMVKEQEETIQRIDE [STX5] | 4.48 ± 0.2 | 4.26 ± 0.098
